Measurements: patent publication US20250188166A1

Experiments:
[1] = target: native IL-18 wild-type (SEQ ID NO: 1) (human) (UniProt Q14116)
[2] = target: Composition A (LZM-009 conjugated to IL-18 polypeptide SEQ ID NO: 30) (human) (UniProt Q14116)
[3] = target: IL-18 polypeptide SEQ ID NO: 31 (C38A, C76A, C127A) (human) (UniProt Q14116)
[4] = target: Composition C (Trastuzumab/Herceptin conjugated to IL-18 polypeptide SEQ ID NO: 30) (human)
[5] = target: Composition D (LZM-009 conjugated to IL-18 polypeptide SEQ ID NO: 31) (human) (UniProt Q14116)
[6] = target: IL-18 polypeptide C149 (human) (UniProt Q14116); experiment: cell-based or functional assay
[7] = target: IL-18 polypeptide C162 (human) (UniProt Q14116); experiment: cell-based or functional assay
[8] = target: IL-18 polypeptide SEQ ID NO: 54 (E06K, K53A, C38S, C68S, C76S, C127S, K70C) (human) (UniProt Q14116); experiment: cell-based or functional assay
[9] = target: IL-18 polypeptide C152 (human) (UniProt Q14116); experiment: cell-based or functional assay
[10] = target: IL-18 polypeptide C158 (human) (UniProt Q14116); experiment: cell-based or functional assay
[11] = target: IL-18 polypeptide C159 (human) (UniProt Q14116); experiment: cell-based or functional assay
[12] = target: IL-18 polypeptide SEQ ID NO: 53 (K53A, T63A) (human) (UniProt Q14116); experiment: cell-based or functional assay
[13] = target: IL-18 polypeptide C153 (human) (UniProt Q14116); experiment: cell-based or functional assay
[14] = target: IL-18 polypeptide C157 (human) (UniProt Q14116); experiment: cell-based or functional assay
[15] = target: IL-18 polypeptide C160 (human) (UniProt Q14116); experiment: cell-based or functional assay
[16] = target: IL-18 polypeptide C164 (human) (UniProt Q14116); experiment: cell-based or functional assay
[17] = target: IL-18 polypeptide SEQ ID NO: 48 (C38S, C68S, C76S, C127S, K70C) (human) (UniProt Q14116); experiment: cell-based or functional assay
[18] = target: IL-18 polypeptide C161 (human) (UniProt Q14116); experiment: cell-based or functional assay
[19] = target: IL-18 polypeptide SEQ ID NO: 50 (E06K, K53A, T63A) (human) (UniProt Q14116); experiment: cell-based or functional assay
[20] = target: IL-18 polypeptide C150 (human) (UniProt Q14116); experiment: cell-based or functional assay
[21] = target: IL-18 polypeptide SEQ ID NO: 36 (K53A) (human) (UniProt Q14116); experiment: cell-based or functional assay
[22] = target: IL-18 polypeptide SEQ ID NO: 55 (K53A, T63A, C38S, C68S, C76S, C127S, K70C) (human) (UniProt Q14116); experiment: cell-based or functional assay
[23] = target: native IL-18 wild-type (SEQ ID NO: 1) (human) (UniProt Q14116); experiment: cell-based or functional assay
[24] = target: IL-18 polypeptide SEQ ID NO: 38 (E06K) (human) (UniProt Q14116); experiment: cell-based or functional assay
[25] = target: IL-18 polypeptide SEQ ID NO: 9 (E6K, C38A, K53A, C68A, D98C) (human) (UniProt Q14116); experiment: cell-based or functional assay
[26] = target: IL-18 polypeptide SEQ ID NO: 47 (C38S, C68S, C76S, C127S) (human) (UniProt Q14116); experiment: cell-based or functional assay
[27] = target: IL-18 polypeptide SEQ ID NO: 6 (E6K, V11I, C38A, K53A, T63A, C68A, C76A, C127A, D98C) (human) (UniProt Q14116); experiment: cell-based or functional assay
[28] = target: IL-18 polypeptide C168 (human) (UniProt Q14116); experiment: cell-based or functional assay
[29] = target: IL-18 polypeptide C144 (human) (UniProt Q14116); experiment: cell-based or functional assay
[30] = target: IL-18 polypeptide C156 (human) (UniProt Q14116); experiment: cell-based or functional assay
[31] = target: IL-18 polypeptide SEQ ID NO: 39 (E06K, K53A) (human) (UniProt Q14116); experiment: cell-based or functional assay
[32] = target: IL-18 polypeptide SEQ ID NO: 62 (E6K, C38A, K53A, C127A) (human) (UniProt Q14116); experiment: cell-based or functional assay
[33] = target: IL-18 polypeptide SEQ ID NO: 57 (E6K, C38S, K53A) (human) (UniProt Q14116); experiment: cell-based or functional assay
[34] = target: IL-18 polypeptide SEQ ID NO: 4 (E6K, C38A, K53A, C68A, M86C) (human) (UniProt Q14116); experiment: cell-based or functional assay
[35] = target: IL-18 polypeptide C163 (human) (UniProt Q14116); experiment: cell-based or functional assay
[36] = target: IL-18 polypeptide SEQ ID NO: 52 (E06K, T63A) (human) (UniProt Q14116); experiment: cell-based or functional assay
[37] = target: IL-18 polypeptide C148 (human) (UniProt Q14116); experiment: cell-based or functional assay
[38] = target: IL-18 polypeptide C165 (human) (UniProt Q14116); experiment: cell-based or functional assay
[39] = target: IL-18 polypeptide C146 (SEQ ID NO: 68) (human) (UniProt Q14116); experiment: cell-based or functional assay
[40] = target: IL-18 polypeptide C154 (human) (UniProt Q14116); experiment: cell-based or functional assay
[41] = target: IL-18 polypeptide SEQ ID NO: 35 (Y01G, F02A, E06K, M51G, K53A, D54A, S55A, T63A) (human) (UniProt Q14116); experiment: cell-based or functional assay
[42] = target: IL-18 polypeptide C167 (human) (UniProt Q14116); experiment: cell-based or functional assay
[43] = target: IL-18 polypeptide SEQ ID NO: 37 (S55A) (human) (UniProt Q14116); experiment: cell-based or functional assay
[44] = target: IL-18 polypeptide SEQ ID NO: 34 (E06K, K53A, S55A) (human) (UniProt Q14116); experiment: cell-based or functional assay
[45] = target: IL-18 polypeptide SEQ ID NO: 5 (E6K, V11I, C38A, K53A, T63A, C68A, C76A, C127A, M86C) (human) (UniProt Q14116); experiment: cell-based or functional assay
[46] = target: IL-18 polypeptide C166 (human) (UniProt Q14116); experiment: cell-based or functional assay
[47] = target: IL-18 polypeptide SEQ ID NO: 41 (K53A, S55A) (human) (UniProt Q14116); experiment: cell-based or functional assay
[48] = target: IL-18 polypeptide SEQ ID NO: 60 (E6K, C38Q, K53A) (human) (UniProt Q14116); experiment: cell-based or functional assay
[49] = target: IL-18 polypeptide C145 (human) (UniProt Q14116); experiment: cell-based or functional assay
[50] = target: IL-18 polypeptide C143 (human) (UniProt Q14116); experiment: cell-based or functional assay
[51] = target: IL-18 polypeptide C155 (human) (UniProt Q14116); experiment: cell-based or functional assay
[52] = target: IL-18 polypeptide SEQ ID NO: 59 (E6K, C38A, K53A) (human) (UniProt Q14116); experiment: cell-based or functional assay
[53] = target: IL-18 polypeptide C147 (human) (UniProt Q14116); experiment: cell-based or functional assay
[54] = target: IL-18 polypeptide SEQ ID NO: 46 (E06K, K53A, S55A, M51G) (human) (UniProt Q14116); experiment: cell-based or functional assay
[55] = target: IL-18 polypeptide C151 (human) (UniProt Q14116); experiment: cell-based or functional assay
[56] = target: IL-18 polypeptide SEQ ID NO: 51 (T63A) (human) (UniProt Q14116); experiment: cell-based or functional assay
[57] = target: IL-18 polypeptide SEQ ID NO: 40 (E06K, S55A) (human) (UniProt Q14116); experiment: cell-based or functional assay
[58] = target: IL-18 polypeptide SEQ ID NO: 42 (E06K, K53A, S55A, T63A) (human) (UniProt Q14116); experiment: cell-based or functional assay
[59] = target: IL-18 polypeptide SEQ ID NO: 43 (E06K, K53A, S55A, Y01G) (human) (UniProt Q14116); experiment: cell-based or functional assay

## Fc fused human IL-18 binding protein isoform a (from UniProt O95998 31-194) (Fc fusion)
[1]
  IC50 (read off the curve): 1 nM
[2]
  IC50 (read off the curve): 8 nM
[3]
  IC50 (read off the curve): 0.3 nM
[4]
  IC50 (read off the curve): 10 nM
[5]
  IC50 (read off the curve): 0.1 nM
[6]
  IC50 of IL-18BP on IFNγ secretion by NK92 cells: 1.17 nM
[7]
  IC50 of IL-18BP on IFNγ secretion by NK92 cells: 7.29 nM
[8]
  IC50 of IL-18BP on IFNγ secretion by NK92 cells: 23.5 nM
[9]
  IC50 of IL-18BP on IFNγ secretion by NK92 cells: 7.85 nM
[10]
  IC50 of IL-18BP on IFNγ secretion by NK92 cells: 3.98 nM
[11]
  IC50 of IL-18BP on IFNγ secretion by NK92 cells: 1.81 nM
[12]
  IC50 of IL-18BP on IFNγ secretion by NK92 cells: 18.2 nM
[13]
  IC50 of IL-18BP on IFNγ secretion by NK92 cells: 2.22 nM
[14]
  IC50 of IL-18BP on IFNγ secretion by NK92 cells: 6.08 nM
[15]
  IC50 of IL-18BP on IFNγ secretion by NK92 cells: 3.18 nM
[16]
  IC50 of IL-18BP on IFNγ secretion by NK92 cells: 0.456 nM
[17]
  IC50 of IL-18BP on IFNγ secretion by NK92 cells: 0.114 nM
[18]
  IC50 of IL-18BP on IFNγ secretion by NK92 cells: 1.07 nM
[19]
  IC50 of IL-18BP on IFNγ secretion by NK92 cells: > 1000 nM
[20]
  IC50 of IL-18BP on IFNγ secretion by NK92 cells: 21.3 nM
[21]
  IC50 of IL-18BP on IFNγ secretion by NK92 cells: 27.3 nM
[22]
  IC50 of IL-18BP on IFNγ secretion by NK92 cells: > 1000 nM
[23]
  IC50 of IL-18BP on IFNγ secretion by NK92 cells: 1.47 nM
[24]
  IC50 of IL-18BP on IFNγ secretion by NK92 cells: 7.79 nM
[25]
  IC50 of IL-18BP on IFNγ secretion by NK92 cells: 961 nM
[26]
  IC50 of IL-18BP on IFNγ secretion by NK92 cells: 0.444 nM
[27]
  IC50 of IL-18BP on IFNγ secretion by NK92 cells: 5.85 nM
[28]
  IC50 of IL-18BP on IFNγ secretion by NK92 cells: 0.176 nM
[29]
  IC50 of IL-18BP on IFNγ secretion by NK92 cells: 7.52 nM
[30]
  IC50 of IL-18BP on IFNγ secretion by NK92 cells: 0.681 nM
[31]
  IC50 of IL-18BP on IFNγ secretion by NK92 cells: > 703 nM
[32]
  IC50 of IL-18BP on IFNγ secretion by NK92 cells: 284 nM
[33]
  IC50 of IL-18BP on IFNγ secretion by NK92 cells: 146 nM
[34]
  IC50 of IL-18BP on IFNγ secretion by NK92 cells: 396 nM
[35]
  IC50 of IL-18BP on IFNγ secretion by NK92 cells: 0.823 nM
[36]
  IC50 of IL-18BP on IFNγ secretion by NK92 cells: 47.1 nM
[37]
  IC50 of IL-18BP on IFNγ secretion by NK92 cells: 5.05 nM
[38]
  IC50 of IL-18BP on IFNγ secretion by NK92 cells: 0.885 nM
[39]
  IC50 of IL-18BP on IFNγ secretion by NK92 cells: 733 nM
[40]
  IC50 of IL-18BP on IFNγ secretion by NK92 cells: 3.71 nM
[41]
  IC50 of IL-18BP on IFNγ secretion by NK92 cells: > 55 nM
[42]
  IC50 of IL-18BP on IFNγ secretion by NK92 cells: 0.809 nM
[43]
  IC50 of IL-18BP on IFNγ secretion by NK92 cells: 4.46 nM
[44]
  IC50 of IL-18BP on IFNγ secretion by NK92 cells: 229 nM
[45]
  IC50 of IL-18BP on IFNγ secretion by NK92 cells: 62.4 nM
[46]
  IC50 of IL-18BP on IFNγ secretion by NK92 cells: 0.44 nM
[47]
  IC50 of IL-18BP on IFNγ secretion by NK92 cells: 37.3 nM
[48]
  IC50 of IL-18BP on IFNγ secretion by NK92 cells: 780 nM
[49]
  IC50 of IL-18BP on IFNγ secretion by NK92 cells: 10.2 nM
[50]
  IC50 of IL-18BP on IFNγ secretion by NK92 cells: 1.62 nM
[51]
  IC50 of IL-18BP on IFNγ secretion by NK92 cells: 3.23 nM
[52]
  IC50 of IL-18BP on IFNγ secretion by NK92 cells: 654 nM
[53]
  IC50 of IL-18BP on IFNγ secretion by NK92 cells: 47.6 nM
[54]
  IC50 of IL-18BP on IFNγ secretion by NK92 cells: 0.189 nM
[55]
  IC50 of IL-18BP on IFNγ secretion by NK92 cells: 3.62 nM
[56]
  IC50 of IL-18BP on IFNγ secretion by NK92 cells: 0.239 nM
[57]
  IC50 of IL-18BP on IFNγ secretion by NK92 cells: 15 nM
[58]
  IC50 of IL-18BP on IFNγ secretion by NK92 cells: 1060 nM
[59]
  IC50 of IL-18BP on IFNγ secretion by NK92 cells: 27.8 nM
